Test results taken from patent publication US20220143148A1, “COMPOSITIONS AND METHODS FOR MODULATING CGRP SIGNALING TO REGULATE INTESTINAL INNATE LYMPHOID CELLS” (The Broad Institute, Inc., priority 2019, published 2022).

System: small intestinal immune cells
Experiment: Droplet-based scRNA-seq of small intestinal immune cells (LP and PP), OVA vs PBS, clustering and differential expression
Assay type: in vivo, mouse
Source text: To comprehensively characterize small intestinal immune cells, Applicants generated scRNA-Seq profiles for 58,067 immune cells collected from lamina propria (LP) and Peyer's patch (PP) regions at steady state and after induction of a type 2 inflammatory reaction to ovalbumin (OVA) (Brandt et al., 2003) (FIGS. 1A and 8A). To ensure sufficient representation of rare cells, Applicants combined a normalization strategy—removing by flow sorting either a portion of IgD+ naïve B cells, which are the most abundant cell type in PPs, or all CD19+ and CD3+ T cells (FIG. 8B, Methods)—with profiling of a sufficiently large number of cells number (P>0.99 to recover at least 15 cells from each cluster, Methods) by massively parallel scRNA-seq (Haber et al., 2017) (Methods). Applicants obtained 36,797 and 21,270 high quality cells passing initial filtering (Methods) from PP and LP regions, respectively.
Overall, Applicants annotated 27 cell subsets across the two compartments, spanning T cells, B cells, ILCs, dendritic cells (DCs), myeloid cells and stromal cells, in frequencies ranging from 0.07% to 14%. Briefly, Applicants first partitioned the cells from the PP regions by unsupervised clustering (Methods) into 46 clusters, retained the 97% of cells that were robustly assigned cell identities in each cluster (Methods), assigned the cells from the LP regions to the 46 clusters using a classifier (Methods), and visualized the data with scvis (Ding et al., 2018), a deep generative model-based method (FIGS. 1B and 8C, Methods). Next, Applicants identified genes that were differentially expressed between the cells in each cluster and the remaining cells (Table 1, Methods), as well as between pairs of clusters (Table 2), to elucidate identities of similar cell types/states. Applicants excluded from downstream analysis clusters mostly consisting of contaminants from epithelium, likely doublets, or cells with a small number of Unique Molecular Identifiers (UMIs) (FIGS. 1C and 8D), or lacking distinct markers (Methods). Altogether, Applicants retained 27 clusters spanning 85% of the cells and each associated with distinct marker genes (FIG. 8E, Methods).
To induce allergic reaction to OVA, 6 to 7 weeks old mice were sensitized twice, two weeks apart, with 50 μg of OVA plus 1 mg of aluminum potassium sulfate adjuvant via intraperitoneal injection. Two weeks later, mice were orally administered with 50 mg of OVA on every other day for a total of five times. 1 μg of α-CGRP peptide was administered simultaneously when indicated. Mice were deprived of food for 3-4 hours in cages with wood chip bedding for limiting antigen degradation in the stomach before each intragastric challenge.
Isolation of cells from Peyer's patches (PPs). Peyer's patches (PPs) were carefully dissected from the small intestine under a stereo microscope using a fine scissor, pierced once with a fine forcep. Tissues were digested in freshly made digestion buffer (RPMI-1640 containing 100 μg/ml Liberase™ and 50 μg/ml DNase I at 37° C. on a roto-mixer. After 15 min, tissues were very gently mixed using a 1 ml pipette. The supernatant was collected and added to ice-cold MACS buffer (pH 7.4; PBS plus 2% FCS and 2 mM EDTA). Pre-warmed (37° C.) fresh digestion buffer was added to the remaining tissues. After rotation at 37° C. for 15 min, the mixture was vigorously mixed using a 1 ml pipette for 1 min. Supernatants from the two steps were combined and passed through 70 μm filters and stained for FACS (below).
Isolation of cells from the lamina propria (LP). The small intestines were opened longitudinally and washed in ice-cold PBS. For scRNA-seq, roughly 0.5 cm of fragments from each of the distal, middle and proximal regions without visible PPs were collected. Epithelial cells were dissociated by tissue rotation in pre-warmed (37° C.) PBS containing 10 mM EDTA at 37° C. for 15 min, followed by additional incubation on ice for 15 min. Tissues were then shaken vigorously. […]

B1: OVA (protein, UniProt P01012 2-386, looked up)
Ovalbumin: GSIGAASMEFCFDVFKELKVHHANENIFYCPIAIMSALAMVYLGAKDSTRTQINKVVRFDKLPGFGDSIEAQCGTSVNVHSSLRDILNQITKPNDVYSFSLASRLYAEERYPILPEYLQCVKELYRGGLEPINFQTAADQARELINSWVESQTNGIIRNVLQPSSVDSQTAMVLVNAIVFKGLWEKAFKDEDTQAMPFRVTEQESKPVQMMYQIGLFRVASMASEKMKILELPFASGTMSMLVLLPDEVSGLEQLESIINFEKLTEWTSSNVMEERKIKVYLPRMKMEEKYNLTSVLMAMGITDVFSSSANLSGISSAESLKISQAVHAAHAEINEAGREVVGSAEAGVDAASVSEEFRADHPFLFCIKHIATNAVLFFGRCVSP
Cluster ID 5, PP, OVA vs PBS
  Txnip: LN (average fold change): 0.660
  Uba52: LN (average fold change): 0.277
  Ucp2: LN (average fold change): 0.325
  Wdr89: LN (average fold change): 0.291
  Zfp36l2: LN (average fold change): 0.865
Cluster ID 6, PP
  AY036118: percentage of expressing cells in OVA-treated group: 0.426
  Atf3: percentage of expressing cells in OVA-treated group: 0.091
  Atp5h: percentage of expressing cells in OVA-treated group: 0.963
  B3gnt8: percentage of expressing cells in OVA-treated group: 0.486
  Bcl2l11: percentage of expressing cells in OVA-treated group: 0.257
  Bhlhe40: percentage of expressing cells in OVA-treated group: 0.465
  Bloc1s2: percentage of expressing cells in OVA-treated group: 0.784
  Btg2: percentage of expressing cells in OVA-treated group: 0.801
  Ccl4: percentage of expressing cells in OVA-treated group: 0.848
  Cd68: percentage of expressing cells in OVA-treated group: 0.861
  Cd83: percentage of expressing cells in OVA-treated group: 0.092
  Cdv3: percentage of expressing cells in OVA-treated group: 0.414
  Clcn3: percentage of expressing cells in OVA-treated group: 0.35
  Clec10a: percentage of expressing cells in OVA-treated group: 0.532
  Clec2d: percentage of expressing cells in OVA-treated group: 0.578
  Coq10b: percentage of expressing cells in OVA-treated group: 0.242
  Crem: percentage of expressing cells in OVA-treated group: 0.34
  Cxcr3: percentage of expressing cells in OVA-treated group: 0.516
  Cxcr4: percentage of expressing cells in OVA-treated group: 0.561
  D13Ertd608e: percentage of expressing cells in OVA-treated group: 0.947
  Ddit4: percentage of expressing cells in OVA-treated group: 0.221
  Ddx3x: percentage of expressing cells in OVA-treated group: 0.436
  Defa24: percentage of expressing cells in OVA-treated group: 0.099
  Dnajc7: percentage of expressing cells in OVA-treated group: 0.987
  Dusp1: percentage of expressing cells in OVA-treated group: 0.406
  Dusp5: percentage of expressing cells in OVA-treated group: 0.668
  Dusp18: percentage of expressing cells in OVA-treated group: 0.091
  Egr1: percentage of expressing cells in OVA-treated group: 0.143
  Emp3: percentage of expressing cells in OVA-treated group: 0.936
  Erdr1: percentage of expressing cells in OVA-treated group: 0.149
  Fabp2: percentage of expressing cells in OVA-treated group: 0.048
  Fam46c: percentage of expressing cells in OVA-treated group: 0.221
  Filip1l: percentage of expressing cells in OVA-treated group: 0.384
  Fkbp5: percentage of expressing cells in OVA-treated group: 0.161
  Fosb: percentage of expressing cells in OVA-treated group: 0.332
  Fosl2: percentage of expressing cells in OVA-treated group: 0.141
  Foxp1: percentage of expressing cells in OVA-treated group: 0.719
  Fyn: percentage of expressing cells in OVA-treated group: 0.756
  Gapdh: percentage of expressing cells in OVA-treated group: 0.911
  Gapt: percentage of expressing cells in OVA-treated group: 0.657
  Gnb1: percentage of expressing cells in OVA-treated group: 0.515
  Grasp: percentage of expressing cells in OVA-treated group: 0.193
  Gtf2i: percentage of expressing cells in OVA-treated group: 0.542
  H2-Aa: percentage of expressing cells in OVA-treated group: 0.947
  H2-Ab1: percentage of expressing cells in OVA-treated group: 0.949
  H2-Eb1: percentage of expressing cells in OVA-treated group: 0.907
  H2afj: percentage of expressing cells in OVA-treated group: 0.935
  Hes6: percentage of expressing cells in OVA-treated group: 0.474
  Hist1h1c: percentage of expressing cells in OVA-treated group: 0.522
  Hist2h4: percentage of expressing cells in OVA-treated group: 0.165
  Ier2: percentage of expressing cells in OVA-treated group: 0.432
  Ier5: percentage of expressing cells in OVA-treated group: 0.937
  Ifi30: percentage of expressing cells in OVA-treated group: 0.883
  Ifrd1: percentage of expressing cells in OVA-treated group: 0.241
  Igha: percentage of expressing cells in OVA-treated group: 0.681
  Igkc: percentage of expressing cells in OVA-treated group: 0.944
  Itpkb: percentage of expressing cells in OVA-treated group: 0.296
  Jun: percentage of expressing cells in OVA-treated group: 0.769
  Junb: percentage of expressing cells in OVA-treated group: 0.745
  Jund: percentage of expressing cells in OVA-treated group: 0.92
  Kdm6b: percentage of expressing cells in OVA-treated group: 0.307
  Klf4: percentage of expressing cells in OVA-treated group: 0.147
  Klk1: percentage of expressing cells in OVA-treated group: 0.964
  Kmt2e: percentage of expressing cells in OVA-treated group: 0.596
  Lag3: percentage of expressing cells in OVA-treated group: 0.605
  Lgals1: percentage of expressing cells in OVA-treated group: 0.985
  Lmnb1: percentage of expressing cells in OVA-treated group: 0.189
  Ly6c1: percentage of expressing cells in OVA-treated group: 0.991
  Lyz1: percentage of expressing cells in OVA-treated group: 0.035
  Mcl1: percentage of expressing cells in OVA-treated group: 0.459
